Substrate in test [1]: T1, BNP single alanine substituted peptide, F11 to alanine (human)
T1 sequence (peptide, cyclic hBNP 1-32): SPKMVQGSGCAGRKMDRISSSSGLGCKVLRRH
The test is described as follows: BIAcore SPR, AM1 captured on goat anti-human Fc, peptide at 10 nM, 1800 s dissociation. On the technique in general: Surface plasmon resonance follows binding to a sensor surface in real time, without labels.

Substrate in test [2]: T2, BNP single alanine substituted peptide, R13 to alanine (human)
T2 sequence (peptide, cyclic hBNP 1-32): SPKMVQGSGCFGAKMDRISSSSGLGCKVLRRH
Described as above.

This is an account of results in US20080124811A1.

B1: 106.3 AM1 chimeric antibody (antibody, V domains shown)
VH: QIQLVQSGPELRKPGETVKISCKGSGYTFTHYGINWVKQTPRKDLKWMGWINTHTGEAYYADDFKGRFAFSLETSANTAYLQINNLNNGDMGTYFCTRSHRFGLDYWGQGTSVTVSS
VL: DNVLTQSPPSLAVSLGQRATISCKANWPVDYNGDSYLNWYQQKPGQPPKFLIYAASNLESGIPARFSGSGSGTDFNLNIHPVEEEDAATYYCQQSNEDPFTFGSGTKLEIK
modifications: Conjugated to acridinium or biotinylated in the sandwich assays (Examples 4 and 7); the sites are not defined.
On to B1, for which the fold increase in off-rate against WT BNP in test [1] and in test [2] was over 10 fold in each case.
